Results: patent US11261437B2, “Procoagulant compounds” (Bioverativ Therapeutics Inc., priority 2012, dated 2022)
*1 amine or outer side, *2 acyl side, *3 side chain or, on linkers, in order; H or OH if unused. Bridges are numbered along the chain shown (N, C = ends). Where no end group is shown, it is not given here. [ ]: non-standard residue; d: D form. The star is where a group is joined. PABC = O=C(OCc1ccc(N[*:1])cc1)[*:2]; Pip = O=C(O)[C@@H]1CCCCN1; Acm = CC(=O)NC*

Legend:
Format in all cases: biochemical
thrombin [1] = molecular target: T1, thrombin (Homo sapiens, UniProt P00734); test: Thrombin cleavage of Compounds 1, 4, 5 and 6 by 1.4 nM thrombin (HPLC); details: thrombin 1.4 nM, peptide 50 μM, PBS, 37° C.
Protocol: FIG. 9 depicts the cleavage of Compounds 1, 4, 5 and 6 by 1.4 nM thrombin. Compounds 1, 4 and 5 incorporate PABC and different thrombin-cleavable substrates.
50 μL of peptide (1 mM) in water was added to 900 μL PBS. The mixture was incubated at 37° C. for 30 min, followed by 50 μL of thrombin (27.8 nM, 1 μg/mL), giving the following approximate initial concentrations: thrombin=1.4 nM, peptide=50 μM. The mixture was incubated at 37° C. Aliquots (95 μL) at various time points were quenched with 5 μL of hirudin (2 μM) and injected into the HPLC (C-18 column, CH3CN/H2O, 0 to 70% over 12 minutes, 60° C. 0.5 mL/min, ? =280 nm). The decreases of peptide peak areas were used to calculate yield.

thrombin [2] = molecular target: T1, thrombin; test: Thrombin cleavage of Compound 7 (HPLC); details: 1.4 nm thrombin, peptide 10 μM, PBS, 37° C., after 30 minutes
Protocol: FIG. 5 depicts the cleavage of Compound 7 by thrombin. Upon cleavage with 1.4 nM thrombin in PBS, the clean synthetic procoagulant peptide is released, as well as the portion of the molecule comprising the thrombin substrate, the GGGG linker, and the N-terminal cysteine. To conduct the reaction, 21 μL of peptide (0.24 mM) in water was added to 476.5 μL PBS. The mixture was incubated at 37° C. for 30 min, followed by 2.5 μL of thrombin (278 nM, 10 μg/mL), giving the following approximate initial concentrations: thrombin=1.4 nM, peptide=10 μM. The mixture was incubated at 37° C. Aliquots (60 μL) at various time points were quenched with 1 μL of hirudin (10 μM) and injected into the HPLC (C-18 column, CH3CN/H2O, 0 to 70% over 12 minutes, 60° C. 0.5 mL/min, ? =280 nm). Compound 7 was cleaved rapidly by 1.4 nm thrombin. Approximately 90% of Compound 7 was cleaved after 30 minutes.

plasma (TGA assay) = test: Cleavage of Compound 7 during the TGA assay (HPLC of plasma); details: plasma at the end of TGA assay
Protocol: Plasma at the end of TGA assay for Compound 7 was transferred into cold CH3CN (1 mL) and centrifuged at 13 k rpm for 10 min. Supernatant (1.1 mL) was transferred to a new vial and dried by speedvac. The resulting solid was reconstituted with 30 μL of H2O and injected into the HPLC for analysis.

Substance	Thrombin-mediated release of peptide IVGGQE (thrombin [1])	Compound cleaved by thrombin (thrombin [2])	Cleavage during the course of a TGA assay (plasma (TGA assay))
Ala-Leu-Val-Pro-Arg-Ile-Val-Gly-Gly-Gln-Glu-NH2 (ALVPRIVGGQE-NH2) [Compound 6]	not observed	–	–
Cys(Acm)-Gly-Gly-Gly-Gly-Dphe-Pip-Arg-PABC-rRAPGKLTCLASYCWLFWTGIA-NH2 (disulfide) (C(Acm)GGGG[dF][Pip]R[PABC][dR]RAPGKLTCLASYCWLFWTGIA-NH2; disulfide 18-23 (inferred)) [Compound 7]	–	Approximately 90%	cleaved completely
